Test results: patent publication US10441663B2, “Methods for treating cancer” (Bicycle Therapeutics Limited, priority 2016, dated 2019)
Entries after “also recorded” stand apart in the source; their conditions may differ. *1 amine or outer side, *2 acyl side, *3 side chain or, on linkers, in order; H or OH if unused. Where a SMILES comes first, the peptide text is derived from it. Bridges are numbered along the chain shown (N, C = ends). [ ]: non-standard residue; d: D form. The star is where a group is joined. X1 = COc1cc2cc(c1Cl)N(C)C(=O)C[C@H](OC(=O)[C@H](C)N(C)C(=O)CCSSC(C)CCC(=O)*)[C@]1(C)O[C@H]1[C@H](C)[C@@H]1C[C@@](O)(NC(=O)O1)[C@H](OC)/C=C/C=C(\C)C2; 1Nal = N[C@@H](Cc1cccc2ccccc12)C(=O)O; TBMB = c1c(C[*:1])cc(C[*:3])cc1C[*:2]; Tle = CC(C)(C)[C@H](N)C(=O)O; βAla = NCCC(=O)O; Sar = CNCC(=O)O

System: EBC-1 xenograft
Experiment: Efficacy of BT1718 in EBC-1 xenograft model (Example 1)
Assay type: in vivo, Mus Musculus
Conditions: for Tumor Size (mm^3): Mean ± SEM
Protocol: The objective of this study was to evaluate the anti-tumor efficacy of BT1718 in EBC-1 xenograft model in female BALB/c nude mice.
The EBC-1 tumor cells were maintained in vitro as a monolayer culture in EMEM medium supplemented with 10% heat inactivated fetal bovine serum at 37° C. in an atmosphere of 5% CO2 in air. The tumor cells will be routinely subcultured twice weekly by trypsin-EDTA treatment. The cells growing in an exponential growth phase will be harvested and counted for tumor inoculation.
Each mouse was inoculated subcutaneously at the right flank with EBC-1 tumor cells (10×10^6) in 0.2 ml of PBS for tumor development. The animals were randomized and treatment was started when the average tumor volume reaches approximately 165 mm^3 for the efficacy study.
All the procedures related to animal handling, care and the treatment in the study were performed according to the guidelines of the Association for Assessment and Accreditation of Laboratory Animal Care (AAALAC). At the time of routine monitoring, the animals were daily checked for any effects of tumor growth and treatments on normal behavior such as mobility, food and water consumption (by looking only), body weight gain/loss (body weights were measured every day), eye/hair matting and any other abnormal effect as stated in the protocol. Death and observed clinical signs were recorded on the basis of the numbers of animals within each subset.
The major endpoint was to see if the tumor growth could be delayed or mice could be cured. Tumor size was measured three times weekly in two dimensions using a caliper, and the volume was expressed in mm^3 using the formula: V=0.5 a×b^2 where a and b are the long and short diameters of the tumor, respectively. The tumor size was then used for calculations of T/C value. The T/C value (in percent) is an indication of antitumor effectiveness; T and C are the mean volumes of the treated and control groups, respectively, on a given day.
TGI was calculated for each group using the formula: TGI (%)=[1−(Ti−T0)/(Vi−V0)]×100; Ti is the average tumor volume of a treatment group on a given day, T0 is the average tumor volume of the treatment group on the day of treatment start, Vi is the average tumor volume of the vehicle control group on the same day with Ti, and V0 is the average tumor volume of the vehicle group on the day of treatment start.
Summary statistics, including mean and the standard error of the mean (SEM), are provided for the tumor volume of each group at each time point.
Statistical analysis of difference in tumor volume among the groups was conducted on the data obtained at the best therapeutic time point after the final dose.
A one-way ANOVA was performed to compare tumor volume among groups, and when a significant F-statistics (a ratio of treatment variance to the error variance) was obtained, comparisons between groups were carried out with Games-Howell test. All data were analyzed using Prism. P<0.05 was considered to be statistically significant.

COc1cc2cc(c1Cl)N(C)C(=O)C[C@H](OC(=O)[C@H](C)N(C)C(=O)CCSSC(C)CCC(=O)NCCC(=O)N(C)CC(=O)N(C)CC(=O)N(C)CC(=O)N(C)CC(=O)N(C)CC(=O)N(C)CC(=O)N(C)CC(=O)N(C)CC(=O)N(C)CC(=O)N(C)CC(=O)N[C@@H](C)C(=O)N[C@H]1CSCc3cc4cc(c3)CSC[C@H](NC(=O)[C@@H](C)NC(=O)[C@H](Cc3cccc5ccccc35)NC(=O)[C@H](CCC(=O)O)NC(=O)[C@H](CC(N)=O)NC(=O)[C@@H](C)NC1=O)C(=O)N[C@@H](CCC(=O)O)C(=O)N[C@@H](CC(=O)O)C(=O)N[C@@H](Cc1ccccc1)C(=O)N[C@@H](Cc1ccc(O)cc1)C(=O)N[C@@H](CC(=O)O)C(=O)N[C@@H](C(C)(C)C)C(=O)N[C@H](C(N)=O)CSC4)[C@]1(C)O[C@H]1[C@H](C)[C@@H]1C[C@@](O)(NC(=O)O1)[C@H](OC)/C=C/C=C(\C)C2 (stereo partly shown) [BT1718] ({X1-βAla}-[Sar][Sar][Sar][Sar][Sar][Sar][Sar][Sar][Sar][Sar]AC[dA]NE[1Nal][dA]CEDFYD[Tle]C-NH2; linker 12-18-25 via TBMB (inferred))
tumor growth (3 mg/kg, twice weekly for two weeks): significant reduction in tumor growth | post-treatment monitoring (9 mg/kg qw group and 4.5 mg/kg biw group): re-growth after dosing cessation | tumor response (10 mg/kg tiw): complete tumor clearance | tumor response (10 mg/kg, twice weekly for two weeks): complete regressions | body weight effect (30 mg/kg qw): marked body weight loss; also recorded: severe body weight loss | tumor response (30 mg/kg qw, 15 mg/kg biw, 10 mg/kg tiw and 4.3 mg/kg qd, by day 14): completely regressed the tumor | Body Weight (1.3 mpk qd, day 0): 25.1 ± 0.3 g | Body Weight (% Change) (1.3 mpk qd, day 0): 0.0% | Tumor Volume (1.3 mpk qd, day 0): 161 ± 22 mm^3 | Body Weight (1.3 mpk qd, day 2): 24.6 ± 0.6 g | Body Weight (% Change) (1.3 mpk qd, day 2): −2.0 ± 2.6% | Tumor Volume (1.3 mpk qd, day 2): 204 ± 30 mm^3 | Body Weight (1.3 mpk qd, day 4): 24.9 ± 0.5 g | Body Weight (% Change) (1.3 mpk qd, day 4): −0.8 ± 1.7% | Tumor Volume (1.3 mpk qd, day 4): 243 ± 36 mm^3 | Body Weight (1.3 mpk qd, day 7): 24.2 ± 0.5 g | Body Weight (% Change) (1.3 mpk qd, day 7): −3.5 ± 1.3% | Tumor Volume (1.3 mpk qd, day 7): 278 ± 35 mm^3 | Body Weight (1.3 mpk qd, day 9): 24.5 ± 0.5 g | Body Weight (% Change) (1.3 mpk qd, day 9): −2.2 ± 2.0% | Tumor Volume (1.3 mpk qd, day 9): 326 ± 46 mm^3 | Body Weight (1.3 mpk qd, day 11): 25.4 ± 0.4 g | Body Weight (% Change) (1.3 mpk qd, day 11): 1.3 ± 1.4% | Tumor Volume (1.3 mpk qd, day 11): 370 ± 40 mm^3 | Body Weight (1.3 mpk qd, day 14): 25.2 ± 0.8 g | Body Weight (% Change) (1.3 mpk qd, day 14): 0.5 ± 3.2% | T/C (%) (1.3 mpk qd, day 14): 38% | TGI (%) (1.3 mpk qd, day 14): 71% | Tumor Volume (1.3 mpk qd, day 14): 473 ± 44 mm^3 | Tumor Size (mm^3) (1.3 mpk qd, day 14): 473 ± 44 mm^3 | Body Weight (3 mpk tiw, day 0): 24.0 ± 0.2 g | Body Weight (% Change) (3 mpk tiw, day 0): 0.0% | Tumor Volume (3 mpk tiw, day 0): 165 ± 13 mm^3 | Body Weight (3 mpk tiw, day 2): 23.8 ± 0.3 g | Body Weight (% Change) (3 mpk tiw, day 2): −1.0 ± 0.9% | Tumor Volume (3 mpk tiw, day 2): 251 ± 18 mm^3 | Body Weight (3 mpk tiw, day 4): 24.1 ± 0.3 g | Body Weight (% Change) (3 mpk tiw, day 4): 0.3 ± 0.7% | Tumor Volume (3 mpk tiw, day 4): 381 ± 26 mm^3 | Body Weight (3 mpk tiw, day 7): 24.5 ± 0.2 g | Body Weight (% Change) (3 mpk tiw, day 7): 2.0 ± 0.2% | Tumor Volume (3 mpk tiw, day 7): 501 ± 41 mm^3 | Body Weight (3 mpk tiw, day 9): 24.7 ± 0.2 g | Body Weight (% Change) (3 mpk tiw, day 9): 2.8 ± 0.6% | Tumor Volume (3 mpk tiw, day 9): 525 ± 40 mm^3 | Body Weight (3 mpk tiw, day 11): 24.7 ± 0.2 g | Body Weight (% Change) (3 mpk tiw, day 11): 3.1 ± 1.0% | Tumor Volume (3 mpk tiw, day 11): 540 ± 46 mm^3 | Body Weight (3 mpk tiw, day 14): 25.1 ± 0.2 g | Body Weight (% Change) (3 mpk tiw, day 14): 4.6 ± 1.5% | T/C (%) (3 mpk tiw, day 14): 52% | TGI (%) (3 mpk tiw, day 14): 56% | Tumor Volume (3 mpk tiw, day 14): 644 ± 56 mm^3 | Tumor Size (mm^3) (3 mpk tiw, day 14): 644 ± 56 mm^3 | Body Weight (4.3 mpk qd, day 0): 24.8 ± 0.4 g
